Reference: patent US20130224191A1, “NOTUM PROTEIN MODULATORS AND METHODS OF USE” (priority 2010, published 2013)
Residue numbers refer to the chain shown, from its start. Names may count otherwise.

B1: human-NOTUM S232A mutant: human Notum with S232A point mutation of the putative catalytic nucleophile (His and hFc) (protein, UniProt Q6P988 20-496, looked up, variant S232A)
Palmitoleoyl-protein …: SEGRKTWRRRGQQPPPPPRTEAAPAAGQPVESFPLDFTAVEGNMDSFMAQVKSLAQSLYPCSAQQLNEDLRLHLLLNTSVTCNDGSPAGYYLKESRGSRRWLLFLEGGWYCFNRENCDSRYDTMRRLMSSRDWPRTRTGTGILSSQPEENPYWWNANMVFIPYCSSDVWSGASSKSEKNEYAFMGALIIQEVVRELLGRGLSGAKVLLLAGSAAGGTGVLLNVDRVAEQLEKLGYPAIQVRGLADSGWFLDNKQYRHTDCVDTITCAPTEAIRRGIRYWNGVVPERCRRQFQEGEEWNCFFGYKVYPTLRCPVFVVQWLFDEAQLTVDNVHLTGQPVQEGLRLYIQNLGRELRHTLKDVPASFAPACLSHEIIIRSHWTDVQVKGTSLPRALHCWDRSLHDSHKASKTPLKGCPVHLVDSCPWPHCNPSCPTVRDQFTGQEMNVAQFLMHMGFDMQTVAQPQGLEPSELLGMLSNGS
modifications: His tag or human Fc
B2: D340A: human Notum with D340A point mutation of the catalytic acidic residue (protein, UniProt Q6P988 20-496, looked up, variant D340A)
Palmitoleoyl-protein …: B1 Palmitoleoyl-protein … with A213S, D321A
B3: D141N: human Notum point mutated at D141 to the macaque residue (protein)
chain: B1 Palmitoleoyl-protein … with D122N, A213S
B4: D141S: human Notum point mutated at D141 to the murine residue (protein)
chain: B1 Palmitoleoyl-protein … with D122S, A213S
B5: murine Notum: recombinant murine Notum protein, construct not stated (protein)
chain: SEGRKTWRRRGQQPPQPPPPPPLPQRAEVEPGAGQPVESFPLDFTAVEGNMDSFMAQVKSLAQSLYPCSAQQLNEDLRLHLLLNTSVTCNDGSPAGYYLKESKGSRRWLLFLEGGWYCFNRENCDSRYSTMRRLMSSKDWPHTRTGTGILSSQPEENPHWWNANMVFIPYCSSDVWSGASPKSDKNEYAFMGSLIIQEVVRELLGKGLSGAKVLLLAGSSAGGTGVLLNVDRVAELLEELGYPSIQVRGLADSGWFLDNKQYRRSDCIDTINCAPTDAIRRGIRYWSGMVPERCQRQFKEGEEWNCFFGYKVYPTLRCPVFVVQWLFDEAQLTVDNVHLTGQPVQEGQWLYIQNLGRELRGTLKDVQASFAPACLSHEIIIRSYWTDVQVKGTSLPRALHCWDRSFHDSHKASKTPMKGCPFHLVDSCPWPHCNPSCPTIRDQFTGQEMNVAQFLMHMGFDVQTVAQQQGMEPSKLLGMLSNGN
B6: macaque Notum: recombinant macaque Notum protein, construct not stated (protein)
chain: SEGRKTWRRRGQQPPPPPRTEAAPAAGQPVESFPLDFTAVEGNMDSFMAQVKSLAQSLYPCSAQQLNEDLRLHLLLNTSVTCNDGSPAGYYLKESRGSRRWLLFLEGGWYCFNRENCDSRYNTMRRLMSSRDWPRTRTGTGILSSQPEENPYWWNANMVFIPYCSSDVWSGASSKSEKNEYAFMGALIIQEVVRELLGRGLSGAKVLLLAGSSAGGTGVLLNVDRVAEQLEELGYPAIQVRGLADSGWFLDNKQYRHTDCVDTITCAPTEAIRRGIRYWNGVVPERCRRQFQEGEEWNCFFGYKIYPTLRCPVFVVQWLFDEAQLTVDNVHLTGQPVQESQRLYIQNLGRELRHTLKDVPASFAPACLSHEIIIRSHWTDVQVKGTSLPRALHCWDRSLHDSHKNSKTPLKGCPVHLVDSCPWPHCNPSCPTVRDQFTGQEMNVAQFLMHMGFDVQTVAQQQGPEPSKLLGL
modifications: left off: a dimerising Fc or GST
B7: murine Notum-His: His tagged murine Notum (protein)
chain: B5 chain
modifications: left off: small tags and cut ends
B8: murine Notum-hFc: fusion construct of mouse Notum and human Fc region (protein)
chain: B5 chain
modifications: left off: a dimerising Fc or GST
notes: fusion construct of mouse Notum and human Fc region
B9: macaque Notum-hFc: fusion construct of macaque Notum and human Fc region (protein)
chain: B6 chain
modifications: left off: a dimerising Fc or GST
notes: fusion construct of macaque Notum and human Fc region

Test system: not listed separately
Test: 4-MUH fluorescent hydrolase assay, activity of Notum constructs
Type: biochemical
Details: not given
Protocol: In addition to the assays described in Examples 23 and 24, a fluorescent esterase substrate, 4-methylumbelliferyl heptanoate (Sigma), can be used to measure the activity of hydrolases using standard assay conditions (Richardson and Smith, 2007, PMID: 17620441; Jacks and Kircher, 1967, PMID: 5582971). Briefly, 4-MUH was dissolved in DMSO to a final concentration of 1.2 mM. This substrate was diluted 1:10 into assay buffer (0.1M Tris, pH 7.5, 50 mM NaCl, 0.05% Brij) and incubated with defined amounts of Notum enzyme or point-mutated Notum enzymes, and enzymatic release of the fluorescent molecule 4-methylumbelliferone monitored (355 nm excitation, 460 nm emission) using a Wallac Victor3 Multilabel Counter (Perkin Elmer).

| Molecule | hydrolysis of the 4-MUH substrate |
| --- | --- |
| B1 | no ability to hydrolyze the 4-MUH substrate |
| B2 | no ability to hydrolyze the 4-MUH substrate |
| B3 | retained bioactivity |
| B4 | retained bioactivity |

Test system: not listed separately
Test: Esterase activity of Notum proteins on chromogenic substrates
Type: biochemical
Details: 1 hour at 37° C.
Protocol: Briefly, PNPA or PNPB were dissolved/diluted in isopropanol to final concentrations of 10 mM. These substrate solutions were diluted 1:10 into assay buffer (0.1% gum arabic, 2.3 mg/mL sodium dexoycholate, 1×PBS) and incubated with defined amounts of hNotum enzyme, and the enzymatic release of the chromophore p-nitrophenol monitored by absorbance measurements at 405 nm.

| Molecule | esterase activity |
| --- | --- |
| B1 | greatly reduced esterase activity |
| B5 | display esterase activity |
| B6 | display esterase activity |

Test system: Wnt3A-mediated induction of luciferase in the 293.TCF cells
Test: Wnt3A canonical signaling assay, bioactivity of Notum constructs
Type: cell-based, human
Details: not given
Text: To generate a stable population of cells that contain a reporter for the activation of canonical Wnt signaling, HEK 293T cells were transduced with a lentiviral vector, pGreenFirel-TCF (System Biosciences) which encodes a bifunctional GFP and luciferase reporter cassette under the control of a minimal CMV reporter linked to four tandem repeats of the transcriptional response elements for TCF. Transduced cells populations, termed 293.TCF cells, were subsequently used in a Wnt3A canonical signaling assay as follows: 2.5×10^4 293.TCF cells were plated per well of a 96-well tissue culture plate in 50 μL of serum-free DME medium. After 24 hours of serum starvation, 25 μL of various dilutions of conditioned medium (CM) from L/Wnt3A cells (ATCC CRL-2647; Willert, 2003) or undiluted CM from parental L-cells (ATCC CRL-2648) along with 25 μL of DMEM+0.2% FBS were added to each well. Eighteen hours after addition of CM, 100 μL of One-Glo solution (ProMega Corp.) was added to each well. The contents of each well were then mixed thoroughly to lyse the cells, 100 μL of lysate transferred to black 96-well plates, and the luminescence in each well read after 5 mins using a Wallac Victor3 Multilabel Counter (Perkin-Elmer Corp). […] More particularly, as the Wnt3A+ CM media is diluted from 25% down to approximately 3%, activation of the Wnt pathway is reduced with a corresponding decrease in luminescence.
Once the luciferase reporter system was established, assays for determining the bioactivity of various Notum modulators were performed as follows. 2.5×10^4 293.TCF cells were plated per well of a 96-well tissue culture plate in 50 μL of serum-free medium. After 23 hours of serum starvation, 25 μL of DMEM+0.2% FBS containing various Notum modulators at various concentrations (e.g., hNotum-His, hNotum-hFc, hNotum-S232A-His, murine Notum-His, murine Notum-hFc, macaque Notum-hFc, control protein-His or control protein-hFc obtained as per Examples 7, 8 and 13 above), were added to the cells. After 1 hour, 25 μL of Wnt3A or control L-cell CM were added to each well. Eighteen hours after addition of CM, 100 μL of One-Glo solution (ProMega Corp.) was added to each well, the contents of each well mixed thoroughly to lyse the cells, 100 μL of lysate transferred to black 96-well plates, and the luminescence read after 5 minutes.

| Molecule | antagonism of Wnt3A-mediated induction of luciferase |
| --- | --- |
| B7 | functionally antagonize |
| B8 | functionally antagonize |
| B9 | functionally antagonize |
| B1 | did not antagonize |
| B2 | no ability to antagonize |
| B3 | retained bioactivity |
| B4 | retained bioactivity |

Same assay, conditions: listed as S232A

| Molecule | antagonism of Wnt3A-mediated induction of luciferase |
| --- | --- |
| B1 | no ability to antagonize |
